Experiments:
[1] = system: sensitization phase of murine food allergy; assay: Pretreatment with HRF inhibitor before sensitization with OVA plus alum; assay type: in vivo, mouse; details: 100 μg i.g. one day before i.p. immunization on days 0 and 14
Description: Mice were i.g. pretreated with 100 μg of GST, GST-N19, HRF-2CA or PBS (OVA) one day before i.p. immunization with OVA plus alum on days 0 and 14. From day 28, mice were i.g. challenged with OVA three times a week. (FIG. 9A) Procedure scheme. (FIG. 9B) The development of diarrhea was monitored after OVA challenge. (n=5 for OVA, n=4 for GST, n=5 for N19, n=5 for 2CA, and n=3 each for unsensitized pretreated groups (not shown)). (FIG. 9C, FIG. 9D) Total IgE and IgG1 were measured by ELISA.
Whether HRF inhibitors affect the sensitization phase of food allergy was tested.

[2] = system: c-Kit+ mucosal mast cells of the small intestine; assay: Ex vivo mast cell activation test (MCAT); assay type: cell-based, mouse; details: cells from allergic mice, HRF-2CA 300 μg/ml
Description: FIGS. 2A-2C show mucosal mast cells can be activated ex vivo by antigen. Cells were released with EDTA from small intestines of non-sensitized/OVA challenged (Cont) or OVA-sensitized/OVA-challenged (OVA) mice, and mononuclear cells were selected. The cells were incubated for 15 min at 37° C. with OVA or anti-IgE antibody, and activation of Kit^+ mast cells was measured by flow cytometry (FIG. 2A, FIG. 2B). **, ***: p<0.01, p<0.001 by Student's t-test. (n=2; a representative of 2 independent experiments) (FIG. 2C) Mucosal cells derived from OVA-sensitized/OVA-challenged mice were stimulated with PBS (n=4), OVA (10 ng/ml, n=4) or HRF dimer (100 μg/ml, n=2) in the presence or absence of HRF-2CA (300 μg/ml).
FIGS. 11A-11C show HRF dimer, but not monomer can activate mast cells. (FIG. 11A) Purified dimeric and monomeric HRF expressed in E. coli. Recombinant HRF-[…] was purified first by Histrap HP and then Sephacryl S-200 HR16/60. Two peaks were observed by Sephacryl size fractionation. The first (Fr1) and second (Fr3) peaks contained dimer and monomer, respectively, as shown by SDS-PAGE. Fr1 and Fr3 were used for mast cell stimulation. (FIG. 11B) Cells were released with 10 mM EDTA from small intestines of OVA-sensitized/OVA-challenged mice, and mononuclear cells were selected. The cells were incubated for 15 min at 37° C. with mHRF monomer or dimer (100 μg/ml), or PBS, and Kit^+ mast cell activation (LAMP-1^+) was measured by flow cytometry (n=3). (FIG. 11C) Control experiments indicate an excellent specificity of the assay for HRF multimers. HRF-2CA (2CA) was used as a monomer control (n=2 for each concentration). Note that total concentrations of the 1:9 mixture of dimer:monomer gave almost the same luminescence values as did ten-fold less concentrations of dimer.
Twenty-four hours after the last OVA challenge, mice were sacrificed and small intestines (0.5-15 cm from stomach) were collected. The intestinal tissues were opened longitudinally and washed with PBS. Then, the tissues were incubated with 10 mM EDTA-PBS for 30 min at 37° C. After incubation, the tissues were transferred to 30 ml PBS in 50 ml tubes and vigorously shaken. After washed, the cells were resuspended in 40% Percoll solution and slowly loaded on the top of 75% Percoll solution. The cells were then centrifuged (2000 rpm, 20 min) and lymphocytes were collected. The cells were once centrifuged and resuspended in Tyrode's buffer. Abs (Biotin-anti-CD4 mAb (clone RM4-5), Biotin-anti-CD8 mAb (clone 53-6.7), Biotin-anti-B220 mAb (clone RA3-6B2), Biotin-anti-CD326 mAb (clone G8.8), PE-anti-CD117 (clone 2B8), AlexaFluor647-anti-LAMP-1 mAb (clone 1D4B)) (Biolegend) were added and cells were then stimulated with OVA, anti-IgE (clone RME-1, BioLegend) and recombinant dimeric murine HRF for 15 min at 37° C. After activation, cells were washed and incubated with FITC-streptavidin (Catalog #405202, Biolegend) for 30 min at 4° C. LAMP-1 expression was detected using FACS Calibur. Data were analyzed using FlowJo software.

B1: HRF-2CA-His6, a monomeric mutant of mouse HRF (protein)
chain: MIIYRDLISHDELFSDIYKIREIADGLALEVEGKMVSRTEGAIDDSLIGGNASAEGPEGEGTESTVVTGVDIVMNHHLQETSFTKEAYKKYIKDYMKSLKGKLEEQKPERVKPFMTGAAEQIKHILANFNNYQFFIGENMNPDGMVALLDYREDGVTPFMIFFKDGLEMEKAHHHHHH
[1]
  sensitization phase of murine food allergy: do not affect
[2]; HRF dimer 100 μg/ml
  HRF-induced activation of mucosal mast cells: significantly suppressed
[2]; OVA 10 ng/ml
  OVA-induced activation of mucosal mast cells: significantly suppressed
